Data reported in patent publication US20250250357A1 (NANJING ZAIMING PHARMACEUTICAL, published 2025).
Where two headings read alike, the source gives them in different places.

T1: monkey MSLN on HEK293T-monkey MSLN recombinant cells (monkey)
T1 construct: Full-length precursor as transfected; processing on the cell is not described; also called HEK293-monkey MSLN
T1 chain: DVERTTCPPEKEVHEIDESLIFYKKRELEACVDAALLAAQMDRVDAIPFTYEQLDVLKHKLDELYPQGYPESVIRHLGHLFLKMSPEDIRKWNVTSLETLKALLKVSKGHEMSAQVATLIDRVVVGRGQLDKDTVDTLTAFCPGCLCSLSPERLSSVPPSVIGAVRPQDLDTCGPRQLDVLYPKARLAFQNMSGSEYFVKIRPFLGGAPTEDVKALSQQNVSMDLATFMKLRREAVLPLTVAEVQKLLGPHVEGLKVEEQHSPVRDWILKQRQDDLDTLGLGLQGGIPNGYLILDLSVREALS


How the values were obtained:
[1] = molecular target: T1, monkey MSLN on HEK293T-monkey MSLN …; assay: FACS, HEK293T-monkey MSLN cells
[2] = molecular target: T2, human MSLN-R3 on HEK293T-hMSLN-R3 recombinant cells (human, UniProt Q13421 487-606); assay: FACS, HEK293T-hMSLN-R3 cells
T2 construct: the C-terminal limit is uncertain; also called human MSLN-R3 membrane protein

[3] = molecular target: T3, human MSLN on OVCAR3 tumor cells (human, UniProt Q13421 296-598); assay: FACS, OVCAR3 cells
T3 construct: whole, on cells; also called human MSLN protein

[4] = molecular target: T2, human MSLN-R3 on HEK293T-hMSLN-R3 …; assay: FACS, HEK293T-hMSLN-R3 cells; remark: listed apart in the source
[5] = molecular target: T3, human MSLN on OVCAR3 tumor cells; assay: FACS, OVCAR3 cells; remark: listed apart in the source
[6] = molecular target: T1, monkey MSLN on HEK293T-monkey MSLN …; assay: FACS, HEK293T-monkey MSLN cells
[7] = molecular target: T4, human MSLN-hFc recombinant protein (human, UniProt Q13421 296-580); assay: SPR (Biacore 8K), MSLN-hFc captured, antibody injected
T4 construct: Captured by an anti-human IgG antibody on the chip; also called human MSLN protein; Acro MSN-H5253
T4 sequence (Q13421 other isoform, or with tags, fused parts or gaps): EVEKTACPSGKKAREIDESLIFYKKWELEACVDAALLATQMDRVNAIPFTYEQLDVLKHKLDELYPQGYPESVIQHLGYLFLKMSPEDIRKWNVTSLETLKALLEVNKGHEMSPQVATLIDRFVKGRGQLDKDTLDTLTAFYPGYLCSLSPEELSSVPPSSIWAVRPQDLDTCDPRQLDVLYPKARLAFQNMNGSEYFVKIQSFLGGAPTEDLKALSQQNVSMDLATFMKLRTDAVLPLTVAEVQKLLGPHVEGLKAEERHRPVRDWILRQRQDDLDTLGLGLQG

T2 sequence (Q13421 495-614): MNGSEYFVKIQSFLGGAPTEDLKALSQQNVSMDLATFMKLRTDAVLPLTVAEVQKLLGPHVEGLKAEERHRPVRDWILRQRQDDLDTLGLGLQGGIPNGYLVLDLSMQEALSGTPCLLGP
T3 sequence (Q13421 other isoform, or with tags, fused parts or gaps): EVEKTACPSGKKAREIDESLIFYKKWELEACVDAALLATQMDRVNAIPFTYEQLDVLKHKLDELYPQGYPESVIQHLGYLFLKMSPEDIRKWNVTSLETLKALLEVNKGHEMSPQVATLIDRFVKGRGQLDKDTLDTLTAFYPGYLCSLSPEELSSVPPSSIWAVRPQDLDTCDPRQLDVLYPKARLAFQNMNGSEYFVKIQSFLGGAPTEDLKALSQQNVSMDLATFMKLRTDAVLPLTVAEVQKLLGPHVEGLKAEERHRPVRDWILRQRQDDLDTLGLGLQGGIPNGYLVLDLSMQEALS

| Binder | EC50 [1] | Maximum_MFI [1] | EC50 [2] | Maximum_MFI [2] | EC50 [3] | Maximum_MFI [3] | EC50 [4] | Maximum_MFI [4] | EC50 [5] | Maximum_MFI [5] | EC50 [6] | Maximum_MFI [6] | Kd [7] | koff [7] | kon [7] |
| --- | --- | --- | --- | --- | --- | --- | --- | --- | --- | --- | --- | --- | --- | --- | --- |
| F2.39.3-H5 (scFv, not shown: small tags and cut ends, also called S009-F2.39.3 humanized antibody VH2 + VL1) scFv: EVQLVQSGAEVKKPGASVKVSCKASGYTFTNYWMHWVRQAPGQGLEWMGNINPSSGDSYYNERFMSRVTMTVDKSTSTAYMELSSLRSEDTAVYYCARSGGLWLAFWGQGTLVTVSSGGGGSGGGGSGGGGSDIVMTQSPDSLAVSLGERATINCKSSQTLLNSVSQNNYLAWYQQKPGQSPKLLIYFASTRESGVPDRFSGSGSGTDFTLTISSLQAEDVAVYYCQQHYRTPYTFGGGTKVEIK | 5.64 nM | 22500 MFI | 4.65 nM | 5650 MFI | 6.37 nM | 3140 MFI |  |  |  |  |  |  |  |  |  |
| F2.39.3-H1 (scFv, not shown: small tags and cut ends, also called S009-F2.39.3 humanized antibody VH1 + VL1) scFv: EVQLVQSGAEVKKPGASVKVSCKASGYTFTNYWMHWVRQAPGQGLEWMGNINPSSGDSYYNERFMSRVTMTVDKSTSTVYMELSSLRSEDTAVYYCARSGGLWLAFWGQGTLVTVSSGGGGSGGGGSGGGGSDIVMTQSPDSLAVSLGERATINCKSSQTLLNSVSQNNYLAWYQQKPGQSPKLLIYFASTRESGVPDRFSGSGSGTDFTLTISSLQAEDVAVYYCQQHYRTPYTFGGGTKVEIK | 5.31 nM | 24400 MFI | 4.91 nM | 5820 MFI | 11 nM | 4000 MFI |  |  |  |  |  |  |  |  |  |
| F7.33.24-H1 (scFv, not shown: small tags and cut ends, also called S009-F7.33.24 humanized antibody VH1 + VL1) scFv: EVQLVQSGAEVKKPGASVKVSCKASGYTFTSYWMHWVRQAPGQRLEWMGNVNPSNGGSNYNEKFKNRVTITVDKSASTAYMELSSLRSEDTAVYYCAPHYIGSRPGFAYWGQGTLVTVSSGGGGSGGGGSGGGGSDIVMTQSPDSLAVSLGERATINCKASQNVGTNIAWYQQKPGQSPKALIYSASYRYSGVPDRFSGSGSGTDFTLTISSLQAEDVAVYYCQQYNSYPLTFGGGTKVEIK |  |  |  |  |  |  | 2.55 nM | 2190 MFI | 1.05 nM | 2180 MFI | 4.16 nM | 9050 MFI |  |  |  |
| F7.33.24-H7 (scFv, not shown: small tags and cut ends, also called S009-F7.33.24 humanized antibody VH2 + VL1) scFv: EVQLVQSGAEVKKPGASVKVSCKASGYTFTSYWMHWVRQAPGQGLEWMGNVNPSNGGSNYNEKFKNRVTITVDKSASTAYMELSSLRSEDTAVYYCAPHYIGSRPGFAYWGQGTLVTVSSGGGGSGGGGSGGGGSDIVMTQSPDSLAVSLGERATINCKASQNVGTNIAWYQQKPGQSPKALIYSASYRYSGVPDRFSGSGSGTDFTLTISSLQAEDVAVYYCQQYNSYPLTFGGGTKVEIK |  |  |  |  |  |  | 1.61 nM | 1650 MFI | 2 nM | 2190 MFI | 5 nM | 8820 MFI |  |  |  |
| F7.33.24-H4 (scFv, not shown: small tags and cut ends, also called S009-F7.33.24 humanized antibody VH1a + VL1) scFv: EVQLVQSGAEVKKPGASVKVSCKASGYTFTSYWMHWVRQAPGQRLEWMGNVNPSSGGSNYNEKFKNRVTITVDKSASTAYMELSSLRSEDTAVYYCAPHYIGSRPGFAYWGQGTLVTVSSGGGGSGGGGSGGGGSDIVMTQSPDSLAVSLGERATINCKASQNVGTNIAWYQQKPGQSPKALIYSASYRYSGVPDRFSGSGSGTDFTLTISSLQAEDVAVYYCQQYNSYPLTFGGGTKVEIK |  |  |  |  |  |  | 2.15 nM | 1960 MFI | 3.04 nM | 2230 MFI | 5.23 nM | 9380 MFI |  |  |  |
| F7.33.24-H10 (scFv, not shown: small tags and cut ends, also called S009-F7.33.24 humanized antibody VH2a + VL1) scFv: EVQLVQSGAEVKKPGASVKVSCKASGYTFTSYWMHWVRQAPGQGLEWMGNVNPSNAGSNYNEKFKNRVTITVDKSASTAYMELSSLRSEDTAVYYCAPHYIGSRPGFAYWGQGTLVTVSSGGGGSGGGGSGGGGSDIVMTQSPDSLAVSLGERATINCKASQNVGTNIAWYQQKPGQSPKALIYSASYRYSGVPDRFSGSGSGTDFTLTISSLQAEDVAVYYCQQYNSYPLTFGGGTKVEIK |  |  |  |  |  |  | 1.1 nM | 1560 MFI | 3.04 nM | 2090 MFI | 3.94 nM | 8620 MFI |  |  |  |
| F7.33.24-H2 (scFv, not shown: small tags and cut ends, also called S009-F7.33.24 humanized antibody VH1 + VL2) scFv: EVQLVQSGAEVKKPGASVKVSCKASGYTFTSYWMHWVRQAPGQRLEWMGNVNPSNGGSNYNEKFKNRVTITVDKSASTAYMELSSLRSEDTAVYYCAPHYIGSRPGFAYWGQGTLVTVSSGGGGSGGGGSGGGGSDIVMTQTPLSLSVTPGQPASISCKASQNVGTNIAWYLQKPGQSPQALIYSASYRYSGVPDRFSGSGSGTDFTLKISRVEAEDVGVYYCQQYNSYPLTFGGGTKVEIK |  |  |  |  |  |  | 1.21 nM | 1520 MFI | 2.07 nM | 2190 MFI | 5.11 nM | 8170 MFI | 1.83 nM | 0.000466 s⁻¹ | 254000 M⁻¹ s⁻¹ |
| F7.33.24-H11 (scFv, not shown: small tags and cut ends, also called S009-F7.33.24 humanized antibody VH2a + VL2) scFv: EVQLVQSGAEVKKPGASVKVSCKASGYTFTSYWMHWVRQAPGQGLEWMGNVNPSNAGSNYNEKFKNRVTITVDKSASTAYMELSSLRSEDTAVYYCAPHYIGSRPGFAYWGQGTLVTVSSGGGGSGGGGSGGGGSDIVMTQTPLSLSVTPGQPASISCKASQNVGTNIAWYLQKPGQSPQALIYSASYRYSGVPDRFSGSGSGTDFTLKISRVEAEDVGVYYCQQYNSYPLTFGGGTKVEIK |  |  |  |  |  |  | 0.42 nM | 1590 MFI | 2.25 nM | 2130 MFI | 1.46 nM | 8580 MFI |  |  |  |
| F7.33.24-H6 (scFv, not shown: small tags and cut ends, also called S009-F7.33.24 humanized antibody VH1a + VL3) scFv: EVQLVQSGAEVKKPGASVKVSCKASGYTFTSYWMHWVRQAPGQRLEWMGNVNPSSGGSNYNEKFKNRVTITVDKSASTAYMELSSLRSEDTAVYYCAPHYIGSRPGFAYWGQGTLVTVSSGGGGSGGGGSGGGGSDIVMTQTPLSLSVTPGQPASISCKASQNVGTNIAWYQQKPGQSPQALIYSASYRYSGVPDRFSGSGSGTDFTLKISRVEAEDVGVYYCQQYNSYPLTFGGGTKVEIK |  |  |  |  |  |  | 1.01 nM | 1540 MFI | 1.08 nM | 2300 MFI | 3.54 nM | 8440 MFI |  |  |  |
| F7.33.24-H8 (scFv, not shown: small tags and cut ends, also called S009-F7.33.24 humanized antibody VH2 + VL2) scFv: EVQLVQSGAEVKKPGASVKVSCKASGYTFTSYWMHWVRQAPGQGLEWMGNVNPSNGGSNYNEKFKNRVTITVDKSASTAYMELSSLRSEDTAVYYCAPHYIGSRPGFAYWGQGTLVTVSSGGGGSGGGGSGGGGSDIVMTQTPLSLSVTPGQPASISCKASQNVGTNIAWYLQKPGQSPQALIYSASYRYSGVPDRFSGSGSGTDFTLKISRVEAEDVGVYYCQQYNSYPLTFGGGTKVEIK |  |  |  |  |  |  | 1.52 nM | 1400 MFI | 1.8 nM | 2250 MFI | 4.6 nM | 8000 MFI | 1.32 nM | 0.000529 s⁻¹ | 402000 M⁻¹ s⁻¹ |
| F7.33.24-H5 (scFv, not shown: small tags and cut ends, also called S009-F7.33.24 humanized antibody VH1a + VL2) scFv: EVQLVQSGAEVKKPGASVKVSCKASGYTFTSYWMHWVRQAPGQRLEWMGNVNPSSGGSNYNEKFKNRVTITVDKSASTAYMELSSLRSEDTAVYYCAPHYIGSRPGFAYWGQGTLVTVSSGGGGSGGGGSGGGGSDIVMTQTPLSLSVTPGQPASISCKASQNVGTNIAWYLQKPGQSPQALIYSASYRYSGVPDRFSGSGSGTDFTLKISRVEAEDVGVYYCQQYNSYPLTFGGGTKVEIK |  |  |  |  |  |  | 1.35 nM | 1470 MFI | 2.78 nM | 2420 MFI | 4.98 nM | 8430 MFI | 1.06 nM | 0.000435 s⁻¹ | 409000 M⁻¹ s⁻¹ |
| F7.33.24-H12 (scFv, not shown: small tags and cut ends, also called S009-F7.33.24 humanized antibody VH2a + VL3) scFv: EVQLVQSGAEVKKPGASVKVSCKASGYTFTSYWMHWVRQAPGQGLEWMGNVNPSNAGSNYNEKFKNRVTITVDKSASTAYMELSSLRSEDTAVYYCAPHYIGSRPGFAYWGQGTLVTVSSGGGGSGGGGSGGGGSDIVMTQTPLSLSVTPGQPASISCKASQNVGTNIAWYQQKPGQSPQALIYSASYRYSGVPDRFSGSGSGTDFTLKISRVEAEDVGVYYCQQYNSYPLTFGGGTKVEIK |  |  |  |  |  |  | 1.27 nM | 1330 MFI | 0.92 nM | 2200 MFI | 5.07 nM | 7940 MFI |  |  |  |
| F7.33.24-H9 (scFv, not shown: small tags and cut ends, also called S009-F7.33.24 humanized antibody VH2 + VL3) scFv: EVQLVQSGAEVKKPGASVKVSCKASGYTFTSYWMHWVRQAPGQGLEWMGNVNPSNGGSNYNEKFKNRVTITVDKSASTAYMELSSLRSEDTAVYYCAPHYIGSRPGFAYWGQGTLVTVSSGGGGSGGGGSGGGGSDIVMTQTPLSLSVTPGQPASISCKASQNVGTNIAWYQQKPGQSPQALIYSASYRYSGVPDRFSGSGSGTDFTLKISRVEAEDVGVYYCQQYNSYPLTFGGGTKVEIK |  |  |  |  |  |  | 1.29 nM | 1470 MFI | 2.6 nM | 2190 MFI | 4.08 nM | 8080 MFI |  |  |  |
| F7.33.24-H3 (scFv, not shown: small tags and cut ends, also called S009-F7.33.24 humanized antibody VH1 + VL3) scFv: EVQLVQSGAEVKKPGASVKVSCKASGYTFTSYWMHWVRQAPGQRLEWMGNVNPSNGGSNYNEKFKNRVTITVDKSASTAYMELSSLRSEDTAVYYCAPHYIGSRPGFAYWGQGTLVTVSSGGGGSGGGGSGGGGSDIVMTQTPLSLSVTPGQPASISCKASQNVGTNIAWYQQKPGQSPQALIYSASYRYSGVPDRFSGSGSGTDFTLKISRVEAEDVGVYYCQQYNSYPLTFGGGTKVEIK |  |  |  |  |  |  | 2.89 nM | 1970 MFI | 2.06 nM | 2370 MFI | 5.33 nM | 8310 MFI |  |  |  |
